Target: TPP-2305 (hTNFRSF12Aaa28-80) (Human) (UniProt Q9NP84)
Experiment: SPR (Biacore T100), IgG captured, TPP-2305 injected, 1:1 model

B1: ITEM-1 (antibody, from another filing, mouse IgG1, V domains shown)
VH: EVKLEESGGGLVQPGGSMKLSCVASGFSFSNYWMNWVRQSPEKGLEWVAEIRLKSNNYATHYAESVKGRFTISRHDSKSSVYLQMNNLRAEDTGIYYCTRAYADYFDYWGQGTTLTVSS
VL: DIVLTQSPASLVVSLGQRATISCRASQSVSTSTYSYMHWYQQKPGQPPKILIKYASNLESGVPARFSGSGSGTDFTLNIHPVEEEDTATYYCQHSWEIPYTFGGGTKLEIKR
B1 gave a Kd of 2.9 nM, a koff of 0.011 s⁻¹ and a kon of 3.8e+06 M⁻¹ s⁻¹.
